The values below come from IntAct's records for PubMed 23395371.

B1: Ras-related protein Rab-7L1 (Rattus norvegicus (Rat)), Q63481 (parent)
chain: MGSRDHLFKVLVVGDAAVGKTSLVQRYSQDSFSKHYKSTVGVDFALKVLQWSDSEMVRLQLWDIAGQERFTSMTRLYYRDASACVIMFDVTNATTFSNSQRWKQDLDSKLTLPSGEPVPCLLLANKSDLSPWAVSRDQIDRFSKENGFTGWTETSVKENKNINEAMRVLVEKMMNNSREDIMSSSTQGNYINLQTKPSPGWTCC

The experiment covers variants of B1. To be noted: with lrrk2_human LRRK2, Q5S007.
Sequence of lrrk2_human LRRK2, Q5S007 (Q5S007 whole entry): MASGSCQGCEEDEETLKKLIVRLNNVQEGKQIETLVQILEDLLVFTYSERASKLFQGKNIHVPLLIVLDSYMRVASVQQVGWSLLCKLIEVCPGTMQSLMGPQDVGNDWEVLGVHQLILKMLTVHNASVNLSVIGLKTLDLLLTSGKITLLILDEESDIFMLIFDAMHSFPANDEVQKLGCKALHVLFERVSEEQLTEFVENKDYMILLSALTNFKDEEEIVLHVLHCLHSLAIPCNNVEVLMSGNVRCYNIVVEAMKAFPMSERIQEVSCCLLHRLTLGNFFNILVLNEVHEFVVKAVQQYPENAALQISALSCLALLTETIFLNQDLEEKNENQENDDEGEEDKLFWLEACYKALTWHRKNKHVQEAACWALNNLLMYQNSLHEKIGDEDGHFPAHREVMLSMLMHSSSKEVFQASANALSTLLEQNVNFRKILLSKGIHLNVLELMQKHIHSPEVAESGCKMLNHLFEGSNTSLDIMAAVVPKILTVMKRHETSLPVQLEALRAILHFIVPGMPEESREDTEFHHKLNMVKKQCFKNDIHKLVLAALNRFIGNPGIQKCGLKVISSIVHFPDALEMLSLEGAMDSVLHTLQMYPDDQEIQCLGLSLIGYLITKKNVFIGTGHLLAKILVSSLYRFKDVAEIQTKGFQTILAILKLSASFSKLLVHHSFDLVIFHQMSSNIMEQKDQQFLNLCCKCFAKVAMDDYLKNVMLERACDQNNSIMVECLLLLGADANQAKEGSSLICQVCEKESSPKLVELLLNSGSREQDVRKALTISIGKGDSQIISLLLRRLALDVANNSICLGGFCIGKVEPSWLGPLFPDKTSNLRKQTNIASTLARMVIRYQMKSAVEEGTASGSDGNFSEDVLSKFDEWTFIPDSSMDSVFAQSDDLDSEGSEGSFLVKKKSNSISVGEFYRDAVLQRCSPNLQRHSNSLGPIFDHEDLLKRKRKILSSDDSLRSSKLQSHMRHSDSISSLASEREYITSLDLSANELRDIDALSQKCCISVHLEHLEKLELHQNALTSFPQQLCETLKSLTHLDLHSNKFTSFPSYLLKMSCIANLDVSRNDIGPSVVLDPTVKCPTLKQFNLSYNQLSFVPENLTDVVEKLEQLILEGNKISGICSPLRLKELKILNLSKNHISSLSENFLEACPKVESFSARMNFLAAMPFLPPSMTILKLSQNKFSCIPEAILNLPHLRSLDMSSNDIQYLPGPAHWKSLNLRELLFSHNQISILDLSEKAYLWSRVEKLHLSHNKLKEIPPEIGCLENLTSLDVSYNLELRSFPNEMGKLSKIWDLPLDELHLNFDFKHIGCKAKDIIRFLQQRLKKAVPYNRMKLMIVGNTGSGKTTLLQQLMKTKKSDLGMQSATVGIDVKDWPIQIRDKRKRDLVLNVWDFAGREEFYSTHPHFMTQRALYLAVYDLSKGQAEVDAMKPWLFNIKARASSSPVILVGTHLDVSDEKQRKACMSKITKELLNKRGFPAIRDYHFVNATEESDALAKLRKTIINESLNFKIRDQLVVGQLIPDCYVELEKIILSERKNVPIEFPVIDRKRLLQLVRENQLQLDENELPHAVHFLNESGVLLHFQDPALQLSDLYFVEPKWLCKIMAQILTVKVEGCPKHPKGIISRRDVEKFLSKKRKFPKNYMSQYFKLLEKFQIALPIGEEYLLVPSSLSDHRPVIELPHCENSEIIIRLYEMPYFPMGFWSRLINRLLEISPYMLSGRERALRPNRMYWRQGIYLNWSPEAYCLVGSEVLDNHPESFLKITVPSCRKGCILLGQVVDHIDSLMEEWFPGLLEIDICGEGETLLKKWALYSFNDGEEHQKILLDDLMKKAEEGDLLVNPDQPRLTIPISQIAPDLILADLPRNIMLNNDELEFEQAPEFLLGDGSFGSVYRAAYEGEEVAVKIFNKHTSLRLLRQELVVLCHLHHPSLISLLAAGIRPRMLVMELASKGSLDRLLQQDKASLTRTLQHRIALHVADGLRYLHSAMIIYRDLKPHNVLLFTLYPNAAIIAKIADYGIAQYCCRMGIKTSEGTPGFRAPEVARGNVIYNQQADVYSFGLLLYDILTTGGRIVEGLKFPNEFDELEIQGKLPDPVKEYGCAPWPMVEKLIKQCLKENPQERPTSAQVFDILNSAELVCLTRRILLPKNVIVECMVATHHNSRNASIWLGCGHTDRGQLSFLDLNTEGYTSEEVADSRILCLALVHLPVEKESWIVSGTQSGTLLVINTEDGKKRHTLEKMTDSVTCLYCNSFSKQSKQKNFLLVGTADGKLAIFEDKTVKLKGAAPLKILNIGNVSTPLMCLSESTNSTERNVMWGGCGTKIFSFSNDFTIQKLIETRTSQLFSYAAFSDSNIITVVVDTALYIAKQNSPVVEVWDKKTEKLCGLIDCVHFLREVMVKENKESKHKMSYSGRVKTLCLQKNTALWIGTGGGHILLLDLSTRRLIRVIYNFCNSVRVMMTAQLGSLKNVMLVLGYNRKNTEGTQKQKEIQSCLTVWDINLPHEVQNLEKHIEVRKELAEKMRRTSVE
In the case of MGSRDHLFKVLVVGDAAVGKNSLVQRYSQDSFSKHYKSTVGVDFALKVLQWSDSEMVRLQLWDIAGQERFTSMTRLYYRDASACVIMFDVTNATTFSNSQRWKQDLDSKLTLPSGEPVPCLLLANKSDLSPWAVSRDQIDRFSKENGFTGWTETSVKENKNINEAMRVLVEKMMNNSREDIMSSSTQGNYINLQTKPSPGWTCC [T21N], the “effect of a mutation on the interaction” value is “decreasing interaction”.
For MGSRDHLFKVLVVGDAAVGKTSLVQRYSQDSFSKHYKSTVGVDFALKVLQWSDSEMVRLQLWDIAGLERFTSMTRLYYRDASACVIMFDVTNATTFSNSQRWKQDLDSKLTLPSGEPVPCLLLANKSDLSPWAVSRDQIDRFSKENGFTGWTETSVKENKNINEAMRVLVEKMMNNSREDIMSSSTQGNYINLQTKPSPGWTCC [Q67L] the value was “decreasing interaction”.
